Test results reported in the DeepSol protein solubility set.

Assay: soluble on expression in E. coli; label from the status in PepcDB or PDB records

Sequence	soluble on expression in E. coli
MGSDKIHHHHHHMRSIKNITLGLATVGVMSLSGCAGDYLDTIPSTSVSETTINTSLDNLYIALNGIHKEMVSQESGYQCLGGEPGFMMSRDAEADDMNWQTNTWMKAAYLGWQCNMNETNGYNYKFWQIYYQWILNANKILAGLEEVEITSQELFDQIKGEALCIRAWAHFNLVQLYAKRYEAGKDNTQDGIPYREKAVAEEQARNSVEDVYAKINNDLDEACILLSGIKVNDVNHYSEMVAWGLKARVALAMQDYNNAAVYAGKSVSLAEAGGHRLMTGSQLNCGFANITTDTKEAMYAAMTPDDKTVYFYSYYAYMSWNFNSSAIRQGVKCINVDAYETMSETDLRRAWWDPTGEASVPSSSYAKNAYQNRKFTARSTADAVGDVAFMRLAEMYLTQAEALARAGKDSEAQAVFTKFQITRDPSYVSKGNIGDALAEEIMNSRRVELWGEGFRFL	not soluble
MGSDKIHHHHHHMGHQEFMSQEEVDALLKGVTGETDTVDEQRDLSSVRPYNIATQERIVRGRMPGLEIINDRFARLLRIGIFNFMRRTAEISVSQVKVQKYSEFTRNLPIPTNLNLVHVKPLRGTSLFVFDPNLVFFVVDNLFGGDGRFHTRVEGRDFTATEQRIIGKLLNLVFEHYATAWKSVRPLQFEFVRSEMHTQFANVATPNEIVIVTQFSIEFGPTGGTLHICMPYSMIEPIRDVLSSPIQGEALEVDRRWVRVLSQQVQSAEVELSANLAEIPSTFEKILNLRAGDVLPLEIEDTITAKVDGVPVMECGYGIFNGQYALRVQKMISASDTMKEGGYE	not soluble
MSSHTATKYDVFLSFRGHDTRHNFISFLYKELVRRSIRTFKDDKELENGQRFSPELKSPIEVSRFAVVVVSENYAASSWCLDELVTIMDFEKKGSITVMPIFYGVEPNHVRWQTGVLAEQFKKHASREDPEKVLKWRQALTNFAQLSGDCSGDDDSKLVDKIANEISNKKTIYATI	soluble
MSLAAENILQRQFKAEAPCEKWVTDITEFRAGGQKLYLSPILDLFYGEIVAWETACRPTEELVKRMLNKGLESLAEGEKPLLHSDQGWHYRIKSYQSALADRGLVQSMSRKGNSLDNAVMENFFGHLKEEMYYRRDYRNVEELENAVNEYITYWNQKRIKLSLGGLSPVEYRTEYQKAGEGHHHHHH	not soluble
MFYDGYAYHGTTFEQTYRCYPSSFIDKPQIESGDKIIMPPSALDRLASLQIDYPMLFELRNASTDSFSHCGVLEFIAEEGVIYIPYWMMQNLLLQEGDMVRVRNVTLPKGTYVKLQPHTTDFLDIANPKAILETALRNYSCLTVGDSIMVPYNNKKYFIDIVEAKPSNGISIIETDCEVDFAPPLDYKEPERPVAPAPAKGEAKAKEVDVAEAEPKFNPFTGSGRRLDGRPLSYEPQPGAANSNGQSHPVASSSSSGSEKATQQNRGKLVFGSNVERSTKETTKVGAGKDRKQEEEAEKEAKFQAFSGKKYSLRG	soluble
MKLIILEHYSQASEWAAKYIRNRIIQFNPGPEKYFTLGLPTGSTPLGCYKKLIEYYKNGDLSFKYVKTFNMDEYVGLPRDHPESYHSFMWNNFFKHIDIHPENTHILDGNAVDLQAECDAFEEKIKAAGGIELFVGGIGPDGHIAFNEPGSSLVSRTRVKTLAMDTILANARFFDGELTKVPTMALTVGVGTVMDAREVMILITGAHKAFALYKAIEEGVNHMWTVSAFQQHPRTVFVCDEDATLELKVKTVKYFKGLMLVHNKLVDPLYSIKEKETEKSQSSKKPYSD	soluble
MKENIEKLFQAIAQKNPIHSKYLKKIEFSQEDEEEFDKLISYYIQDGISIKEQCDCYLLILNDTLEETKFFIENGAYRYSSFDEVKDKVYFNESYMKQYMIGLALSSFVWIAHIKVRKYFSQYLQNFTPKTTYFEIGPGHGEYFARAVKSGKFSAFYGLDISPTSCELTQKMVKQQVGGLITKCDFLCQDFFTYDFDKKADLIVIGEVLEHVEKPLEFLKRSKELLSDGGEIFATIPINAPAIDHIYLFSHPDEVKDLIEKSGLKFKAYECFMANDYSLEKALKFKNAITMAVVLNALEHHHHHH	soluble
MGSDKIHHHHHHMQNPPPPFNQNHLLAALPPAELERLKPHLELVHMPLGDVLCESGGRLSYVYFPTSAIISLHYILENGSSSEVAGVGNEGLLGISLFMGGENTPTWATVQTAGYCYRLKGPLLLQEFNQGGPLQRVLLRYTQALITQISQTAVCNRHHTIEQQLCRWLLLTLDRLNSQELVMTQELIASMLGVRREGITEAAGKLQQAEIIRYRRGHITVLNRAGLEGHVCECYEVVKKEFERLFRDVKKS	not soluble
MGSDKIHHHHHHMNLKRRRLLDLKSEIFEKIIKIEGNKIDIKPPKKIPQPILSPSREGFDSRNTYNPAVIKEKDRIVMLYRAESKEDKLTGRIGLAISYDGINFFRHPEPIIEPEYKWESVGVEDPRIVKVGKTYYMTYTGYDGKTARLCLATSKNMLTWKKHGPIFEGFEYKKNNIKGWTKSGAILPKKLEKGNFKGNYLMYFGDSNIWMAVSKDLVNWEYMKEPVLSPREGYFDNVLVEPGPPLFETSYGIALIYNSAGRYGDKLKYKVGVVIFDKEYPDKVVARTETPLMVPEYEWELYGHVNNVVFVEGMVEHENKILLYYGGADRHIGLAYWTTDL	not soluble
MTFKDLRDFIAQLEQRGALKRIQVPISPVLEMTEVCDRTLRAKGPALLFEKPTGFDMPVLGNLFGTPERVALGMGAEDVGALREIGKLLAQLKEPEPPKGLKDAWAKLPMYRKVLSMAPKVLKDAPCQEVVEEGEDVDLGRLPVQTCWPGDVGPLITWGLTVTRGPNKERQNLGIYRQQVIGRNKVIMRWLSHRGGALDYREWCQKHPGQPYPVAVALGADPATILGAVTPVPDTLSEYAFAGLLRGHRTELVKCRGSDLQVPASAEIVLEGVIHPGEMADEGPYGDHTGYYNEVDRFPVFTVERVTRRQKPIYHSTYTGRPPDEPAILGVALNEVFVPILQKQFPEIVDFYLPPEGCSYRMAVVTMKKQYPGHAKRVMLGVWSFLRQFMYTKFVIVTDDDIDARDWNDVIWAITTRMDPKRDTVMIDNTPIDYLDFASPVSGLGSKMGLDATHKWPGETSREWGRAIVKDEAVTRRIDALWSSLGIDAAALEHHHHHH	not soluble
MGFNVKTPLLATDVIIRLWDGENFKGIVLIERKYPPVGLALPGGFVEVGERVEEAAAREMREETGLEVRLHKLMGVYSDPERDPRAHVVSVVWIGDAQGEPKAGSDAKKVKVYRLEEIPLDKLVFDHKKIILDFLKGNY	soluble
MGSDKIHHHHHHMKLVTISGPPSSGKTAVLAGVIRAMMASGLKVGALKYDCLATNDDDVFRAIGVPVQTGLSGNLCPDHYFVSNIEECLDWGIREGFDFLLSESAGLCNRCAPHIKGVLAVCVIDNLMGATTPKKIGPMLKYADIVVITKGDIVSQAEREVFAFQVRRANPRAKIMHVNGITGQGAGELASQFLLAPETTCLDGSRLRFSMPAALCSYCLGETRIGMEFQLGNVKKIKMSEEPAR	not soluble
MTETIKCIGCGVEIQTEDKNEVGYAPASSLEKEQVICQRCFRLKHYNEIQDVSLTDDDFLRILNGIGKSDALVVKIVDIFDFNGSWLPGLHRFVGNNKVLLVGNKADLIPKSVKHDKVKHWMRYSAKQLGLKPEDVFLISAAKGQGIAELADAIEYYRGGKDVYVVGCTNVGKSTFINRMIKEFSDETENVITTSHFPGTTLDLIDIPLDEESSLYDTPGIINHHQMAHYVGKQSLKLITPTKEIKPMVFQLNEEQTLFFSGLARFDYVSGGRRAFTCHFSNRLTIHRTKLEKADELYKNHAGDLLSPPTPEELENMPELVKYEFNIREPKTDVVFSGLGWVTVNEPGAKIVAHVPKGVSVSLRKSLILEHHHHHH	not soluble
MAQLQKDAQENECRELIEVPSGHDYQIRQYIEKYPQFLWKYSEGVTIPGYVLNIAEQLNSEYGNVENIPIDLYPCEYYRIVEHSMPTDIGLQPKRFDRIKENLTEKLQQVFRHQDADLYMPENHLIPTVACAVCIQGTWYRGKIENVPPRGIWMYVNLIDAGMSRQVMKSDVRRLPLAFGHYPPMVVKATIRGAVIHRMDRGKVDQFQNMIRNIDYLARCQITTCTEPFQIVLCHPKYEFMNMCSFLLAPRRGQPSQEGVWIPREIAKQLERENGFERNDYDDSGADSDFLEDEEEEDAGWDYGEGDDYAYLRSFPPACKIFRMSEDEFMVERIENERIIYLTSKDMLERRREAEEYLTKEKESLESLPDVWMAYGTSCSVFHQGTMKRASCCGEEGSTIQLLLIDYGISIEVSKSDVYNIPNKDEVNMEPFVTLVSIKSFPFIHYSRVKILQELLPRGTPVKFHRDRKCKEIPTKGEIYQMNGTSVEQSVSEIVSSCQLDLECNSLLPSRIANNELTQLLAYCINYEFMYKSPNVVIYKKSKRVKSHF	not soluble
